This passage reports Kd results from patent publication US20100105141.

Broadly, the Kd is a measure of binding affinity in units of concentration. Low readings indicate tighter binding, high ones weaker binding.

Common to all, as to assay: SPR
(In general: In SPR one partner is held on a chip, and binding of the other changes the refractive index at the surface.)

Series [1] concerns the target wt TetR(B) (Tn10, Gly inserted after Met1) (Escherichia coli) (UniProt P04483). Particulars: ka 3.3e5 M-1 s-1, kd 3.0e-3 s-1; operator sequence used on chip not stated.
The test system of series [2] is L7-1C03-A5 (EsR1) L55M,H64A,F67V,S85I,F86M,H100C,R104G,P105F,K108Q,L113A,Q116S,N129H,L134M,S135Q,V137A,H139I,E147L,H151L,L170V,I174L,F177N (synthetic). Particulars: ka 4.7e4 M-1 s-1, kd 7.8e-3 s-1.
The target in series [3] is L7-1F08-A11 (L7-A11, EsR2) L55M,H64A,F67Y,F86M,H100C,R104G,P105F,K108Q,L113A,Q116S,L134M,S135Q,H139I,F140Y,E147L,H151L,L170V,I174L,F177K (synthetic) (UniProt P04483). Particulars: ka 7.1e4 M-1 s-1, kd 1.7e-2 s-1.
Series [4] relates to L7-3E03-D1 (EsR4) L55M,H64A,F67Y,F86M,H100C,R104G,P105F,K108Q,L113A,Q116S,N129H,L131M,L134M,S135Q,V137A,H139I,F140Y,E147L,H151L,L170V,I174L,F177K (synthetic). Particulars: ka 5.5e4 M-1 s-1, kd 1.1e-2 s-1.
Series [5] addresses L7-1G06-B2 L55M,H64A,F67Y,F86M,H100C,R104G,P105F,K108Q,L113A,Q116S,L117M,L134M,S135Q,H139I,F140Y,E147L,H151L,L170V,I174L,F177K (synthetic) (UniProt P04483). The following applies: ka 4.6e4 M-1 s-1, kd 1.9e-2 s-1.

As for tet operator (Biacore), the Kd came to 9 nM in series [1]; 150 nM in series [2]; 250 nM in series [3]; 200 nM in series [4]; 430 nM in series [5].
